These results are taken from publication doi:10.1101/2025.11.07.687251 (2025).

The chains are these.
B1: GFP-ATG13(1–230):ATG101 [human] / GST-WIPI2 [not stated] (parent complex)
chain 1: METDLNSQDRKDLDKFIKFFALKTVQVIVQARLGEKICTRSSSSPTGSDWFNLAIKDIPEVTHEAKKALAGQLPAVGRSMCVEISLKTSEGDSMELEIWCLEMNEKCDKEIKVSYTVYNRLSLLLKSLLAITRVTPAYRLSRKQGHEYVILYRIYFGEVQLSGLGEGFQTVRVGTVGTPVGTITLSCAYRINLAFMSTRQFERTPPIMGIIIDHFVDRPYPSSSPMHPCN
chain 2: MNCRSEVLEVSVEGRQVEEAMLAVLHTVLLHRSTGKFHYKKEGTYSIGTVGTQDVDCDFIDFTYVRVSSEELDRALRKVVGEFKDALRNSGGDGLGQMSLEFYQKKKSRWPFSDECIPWEVWTVKVHVVALATEQERQICREKVGEKLCEKIINIVEVMNRHEYLPKMPTQSEVDNVFDTGLRDVQPYLYKISFQITDALGTSVTTTMRRLIKDTLAL
chain 3: MNLASQSGEAGAGQLLFANFNQDNTSLAVGSKSGYKFFSLSSVDKLEQIYECTDTEDVCIVERLFSSSLVAIVSLKAPRKLKVCHFKKGTEICNYSYSNTILAVKLNRQRLIVCLEESLYIHNIRDMKVLHTIRETPPNPAGLCALSINNDNCYLAYPGSATIGEVQVFDTINLRAANMIPAHDSPLAALAFDASGTKLATASEKGTVIRVFSIPEGQKLFEFRRGVKRCVSICSLAFSMDGMFLSASSNTETVHIFKLETVKEKPPEEPTTWTGYFGKVLMASTSYLPSQVTEMFNQGRAFATVRLPFCGHKNICSLATIQKIPRLLVGAADGYLYMYNLDPQEGGECALMKQHRLDGSLETTNEILDSASHDCPLVTQTYGAAAGKAYTDDLGAVGGACLEDEASALRLDEDSEHPPMILRTD
B2: GFP-ATG13(1–230):ATG101 [human] / GST-WIPI3 [not stated] (parent complex)
chain 1: B1 chain 1
chain 2: B1 chain 2
chain 3: not shown

The variants in the first test derive from B1. In words: GST beads binding assay (microscopy-based, Glutathione Sepharose beads); 20 mM HEPES (pH 7.5), 200 mM NaCl, 2 mM MgCl2, 1 mM TCEP; room temperature, 60 minutes; read off a plot.
As to chain 1 METDLNSQDRKDLDKFIKFFALKTVQVIVQARLGEKICTRSSSSPTGSDWFNLAIKDIPEVTHEAKKALAGQLPAVGRSMCVEISLKTSEGDSMELEIWCLEMNEKCDKEIKVSYTVYNRLSLLLKSLLAITRVTPAYRLSRKQGHEYVILYRIYFGEVQLSGLGEGFQTVRVGTVGTPVGTITLSCAYRINLAFMSTRQFERTPPIMGIIIDDDVDRPYPSSSPMHPCN [chain 1 H214D, chain 1 F215D], the response is approximately 21000 A.U.

In another test the parent is B2. Briefly: GST beads binding assay (microscopy-based, Glutathione Sepharose beads); 0.5 μM GST bait; 20 mM HEPES (pH 7.5), 200 mM NaCl, 2 mM MgCl2, 1 mM TCEP; room temperature, 60 minutes; read off a plot.
Turning to chain 1 H214D, chain 1 F215D, the response is approximately 12000 A.U.
